Consider 7 molecules from patent US20190008955A1 (SORRENTO THERAPEUTICS, published 2019).

The target in assay [1] is T1, human CXCR3 (human, UniProt P49682 1-368).
T1 sequence (looked up): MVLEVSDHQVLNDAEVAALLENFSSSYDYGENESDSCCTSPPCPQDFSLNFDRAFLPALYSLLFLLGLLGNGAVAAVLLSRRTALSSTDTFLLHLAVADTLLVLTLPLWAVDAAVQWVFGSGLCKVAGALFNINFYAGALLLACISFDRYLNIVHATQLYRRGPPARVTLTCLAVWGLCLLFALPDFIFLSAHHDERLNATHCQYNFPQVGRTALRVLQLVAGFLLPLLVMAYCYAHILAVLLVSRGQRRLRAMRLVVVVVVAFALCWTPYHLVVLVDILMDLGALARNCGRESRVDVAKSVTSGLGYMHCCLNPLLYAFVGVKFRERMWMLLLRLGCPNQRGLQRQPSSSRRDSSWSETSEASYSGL
The assay can be described thus: cell-based or functional assay.

Assay [2] concerns the target T1, human CXCR3. The assay can be described thus: cell-based or functional assay. The source holds these as a separate data set.
For assay [3], the target named is T1, human CXCR3. Description: flow cytometry, antibody titration on CHO-CXCR3 cells. As to the method:
In this example, CHO-CXCR3 cells were lifted from culture flasks using non-enzymatic Cell Dissociation Buffer-PBS based (Life Technologies #13151-014). Cells were resuspended in FACS Buffer (2% Fetal Bovine Serum in PBS) at 1×10⁶ cells/ml and 50 μl (0.5×10⁵ cells) were aliquoted into the wells of a 96-well plate. Plated cells were spun down and the supernatant discarded. Cells were resuspended in 30 μl FACS Buffer containing serially diluted concentrations of antibody in triplicate. Plates were incubated for 1 hr at 4° C. and then washed twice with FACS Buffer. Cells were resuspended in 50 μl goat anti-human IgG (γ-chain specific)-PE conjugated secondary antibody (Southern Biotech #2040-09) diluted 1:500 in FACS Buffer. Cells were further incubated for 30 min at 4° C. and then washed 1× with FACS Buffer. The cells were resuspended in a final volume of 30 μl FACS Buffer and analyzed using the Intellicyt Flow Cytometer. Median fluorescence in the FL-2H channel was determined using FlowJo software and EC₅₀ value was determined by plotting the data in GraphPad Prism and analyzing using a variable slope non-linear regression.
On the technique in general: In flow cytometry, cells or beads pass a laser one at a time.

The target of another assay is T2, murine CXCR3 (murine, UniProt O88410 1-367).
T2 construct: whole, on cells; target is the endogenous receptor on B16-F10 cells; also called mur CXCR3
T2 sequence (looked up): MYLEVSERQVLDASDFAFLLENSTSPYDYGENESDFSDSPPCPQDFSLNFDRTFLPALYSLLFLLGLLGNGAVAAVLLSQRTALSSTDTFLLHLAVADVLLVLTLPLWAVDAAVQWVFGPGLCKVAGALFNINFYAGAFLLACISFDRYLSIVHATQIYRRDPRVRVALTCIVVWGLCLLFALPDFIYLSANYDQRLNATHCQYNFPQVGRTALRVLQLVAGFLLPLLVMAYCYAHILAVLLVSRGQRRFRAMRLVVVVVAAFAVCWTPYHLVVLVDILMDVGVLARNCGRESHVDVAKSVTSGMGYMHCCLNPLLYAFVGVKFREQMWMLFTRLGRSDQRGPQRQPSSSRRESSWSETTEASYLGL
Description: flow cytometry, antibody titration on murine B16-F10 cells. On the procedure:
In this example, murine B16-F10 cells (ATCC, #CRL-6475) were lifted from culture flasks using non-enzymatic Cell Dissociation Buffer-PBS based (Life Technologies #13151-014). Cells were harvested, washed and resuspended in FACS Buffer (2% Fetal Bovine Serum in PBS) at 1×10⁶ cells/ml and 50 μl (0.5×10⁵ cells) were aliquoted into the wells of a 96-well plate. Plated cells were spun down and the supernatant discarded. Cells were resuspended in 30 μl FACS Buffer serially diluted concentrations of antibody in triplicate. Plates were incubated for 1 hr at 4° C. and then washed 2× with FACS Buffer. Cells were resuspended in 50 μl goat anti-human IgG (γ-chain specific)-PE conjugated secondary antibody (Southern Biotech #2040-09) diluted 1:500 in FACS Buffer. Cells were further incubated for 30 min at 4° C. and then washed 1× with FACS Buffer. The cells were resuspended in a final volume of 30 μl FACS Buffer and analyzed using the Intellicyt Flow Cytometer. Median fluorescence in the FL-2H channel was determined using FlowJo software and the EC₅₀ value was determined by plotting the data in GraphPad Prism and analyzing using a variable slope non-linear regression.

Numbering of substitutions follows the chain as printed.

B1: 32D12 (antibody, V domains shown)
VH: EVQLLESGGGLVQPGGSQRLSCAASGFTFSSYPMTWVRQAPGKGLEWVSAISDGGSGTYYADSVKGRFTISRDNSKNTLYLQMNSLRAEDTAIYYCARYKMGGSYRGLDDWGQGTLVTVSS
VL: LPVLTQPASVSGSPGQPITISCTGTSGNIGSYNYVSWYQQHPGKAPRLLIYDVSLRPSGISSHFSGSKSGNTASLTISGLQAEDEAEYFCLSWTSDKTYVFGSGTKLTVL
notes: Fully human IgG class
In general, EC50 refers to the concentration giving half of the maximal effect. A low value points to greater potency. As to B1, the “IC50 [nM] in a calcium flux assay using CHO-CXCR3 cells, ligand CXCL11 (60 nM)” value with human CXCR3 [1] is 19 nM. Also, in the assay with human CXCR3 [2], the “IC50 [nM] in a chemotaxis assay using activated T cells, ligand CXCL9 (30 nM)” value is 2.5 nM; the “IC50 [nM] in a chemotaxis assay using activated T cells, ligand CXCL10 (12.5 nM)” value was 0.03 nM; the “IC50 [nM] in a chemotaxis assay using activated T cells, ligand CXCL11 (0.3 nM)” value is 3.4 nM. The same molecule yielded an EC50 in the assay with human CXCR3 [3] of 4 nM.

B2: 32B12 (antibody, V domains shown)
VH: EVQLVQSGGGLVKSGRSLRLSCTVSGFTFGNSAMSWFRQAPGKGLEWVSSISSSSSYIYYADSVKGRFTISRDNAKNSLYLQMNSLRAEDTAVYYCARDLSGRGYSYLNYWGQGTLVTVSS
VL: SYELTQPPSVSAAPGQKVTISCSGSSSNIGNSYVSWFQQFPGTAPKLVIYENNKRPSGIPDRFSGSKSGTSATLGITGLQTGDEADYYCGTWDSSLSGRVFGGGTKLTVL
notes: Described as a fully human antibody of an IgG class and detected with anti-human IgG (gamma-chain specific); also called anti-CXCR3 antibody 32B12; clone 32B12
As to B2, in the assay with human CXCR3 [1], the “IC50 [nM] in a calcium flux assay using CHO-CXCR3 cells, ligand CXCL9 (200 nM)” value turned out to be 37 nM; the “IC50 [nM] in a calcium flux assay using CHO-CXCR3 cells, ligand CXCL10 (164 nM)” value worked out at 7 nM; the “IC50 [nM] in a calcium flux assay using CHO-CXCR3 cells, ligand CXCL11 (60 nM)” value was determined as 16 nM. Moreover, in the assay with murine CXCR3, the EC50 stood at 25 nM. In the assay with human CXCR3 [2], the “IC50 [nM] in a chemotaxis assay using activated T cells, ligand CXCL9 (30 nM)” value worked out at 0.6 nM; the “IC50 [nM] in a chemotaxis assay using activated T cells, ligand CXCL10 (12.5 nM)” value was found to be 0.2 nM; the “IC50 [nM] in a chemotaxis assay using activated T cells, ligand CXCL11 (0.3 nM)” value amounted to 0.3 nM. In the assay with human CXCR3 [3], this molecule registered an EC50 of 1 nM.

B3: 3C11 (antibody, V domains shown)
VH: EVQLVESGGGLVQPGGSLRLSCSASGFTFSSYAMHWVRQAPGKGLEYVSAISSNGGSTYYADSVKGRFTISRDNSKNTLYLQMSSLRAEDTAVYYCVKSIAAAGTQYYYYYMDVWGKGTTVTVSS
VL: DIQLTQSPSSLSASVGDRVTITCRASQGIGTYLAWFQQKPGKVPKPLIYAASTLQSGVPSRFSGSGSGADFTLTISSLQPEDVATYYCQKYNSVPQTFGQGTKVEIK
notes: Fully human IgG class
For B3, the EC50 with human CXCR3 [3] is 0.6 nM.

B4: 2A3 (antibody, V domains shown)
VH: QVQLVQSGAEVKKPGSSVKVACKASGGTFSHSAISWVRQAPGQGLEWIGRTIPTLEMASYAQKFQGRVTISADKSTRTGYMELRDLRSEDTAVYYCSTQTPSYTDHWGQGTLVTVSS
VL: DIVMTQTPLSLPVTLGQPASISCRSSQSLVHSDGNTYLNWFQQRPGQSPRRLIYKVSNRDSGVPDRFSGSGSGTDFTLKISRVEAEDVGVYYCMQGTHWPLTFGGGTKVEIK
notes: Fully human IgG class
Consider B4, for which the EC50 with human CXCR3 [3] is 11 nM.

B5: 3A3 (antibody, V domains shown)
VH: QVQLVQSGAEVKKPGSSVKVSCKASGGTFNRYAFSWVRQAPGQGPELMGRIMPMFDIASYAQKFQGRLTITADKSTSTAYMELSSLRSDDTAVYYCTQVSGDSDYWGPGTLVTVSS
VL: B4 VL with S32N, Q42H, S61F, K79R, T97S
notes: Fully human IgG class
Molecule B5 displayed an EC50 with human CXCR3 [3] of 0.5 nM.

B6: F7 (antibody, V domains shown)
VH: B4 VH
VL: B4 VL with S26N, N39Y, S81N, L101N, G105Q, V109L
notes: Fully human IgG class; 31
In the assay with human CXCR3 [3], B6 yielded an EC50 of 5 nM.

B7: 3A11 (antibody, V domains shown)
VH: QVQLVQSGGGLVKPGGSLRLSCAASGFTFTSSGMNWVRQAPGKGLEWVAYIFPNGKTLYPESVKGRFIITRDNAEKSLFLEMNNLRAEDMGVYYCAIDLNWGSGYWGQGTLVTVSS
VL: SYVLTQPPSVSKGLRQTATLTCTGNINNVGNVGATWLQQHQGHPPKLLSDRNNNRPSGISERFSASRSGNAASLTITGLQPEDEADYYCSAWDTSLGAWVFGGGTKLTVL
notes: Fully human IgG class
For B7, it took 1.2 nM to reach a half-maximal effect with human CXCR3 [3] (EC50).
